Test results published in US20170165337A1 (IMMATICS BIOTECHNOLOGIES, published 2017).
Where no end group is shown, it is not given here. [ ]: non-standard residue; d: D form. pS = N[C@@H](COP(=O)(O)O)C(=O)O

B1: LLVLIPVYL (peptide)
peptide: LLVLIPVYL
B2: YLLSGDISEA (peptide)
peptide: YLLSGDISEA
B3: LLLAEAELLTL (peptide)
peptide: LLLAEAELLTL
B4: KLWEGLTELV (peptide)
peptide: KLWEGLTELV
B5: LLIGATMQV (peptide)
peptide: LLIGATMQV
B6: KVPAEEVLVAV (peptide)
peptide: KVPAEEVLVAV
B7: NLTDVVEKL (peptide)
peptide: NLTDVVEKL
B8: FMASHLDYL (peptide)
peptide: FMASHLDYL
B9: SLLAELHVLTV (peptide)
peptide: SLLAELHVLTV
B10: KTLDVDATYEI (peptide)
peptide: KTLDVDATYEI
B11: NLIKTVIKL (peptide)
peptide: NLIKTVIKL
B12: SALDTITTV (peptide)
peptide: SALDTITTV
B13: MTAGFSTIAGSV (peptide)
peptide: MTAGFSTIAGSV
B14: SLQEEKLIYV (peptide)
peptide: SLQEEKLIYV
B15: VIYTLIHYI (peptide)
peptide: VIYTLIHYI
B16: IQDRAVPSL (peptide)
peptide: IQDRAVPSL
B17: ALPEVSVEA (peptide)
peptide: ALPEVSVEA
B18: QLLDTYFTL (peptide)
peptide: QLLDTYFTL
B19: ALGEDEITL (peptide)
peptide: ALGEDEITL
B20: SIIEGPIIKL (peptide)
peptide: SIIEGPIIKL
B21: KLGGTPAPA (peptide)
peptide: KLGGTPAPA
B22: ALFTFJPLTV (peptide)
peptide: ALFTF[pS]PLTV
B23: KLWNVAAPLYL (peptide)
peptide: KLWNVAAPLYL
B24: SLSFLVPSL (peptide)
peptide: SLSFLVPSL
B25: SLNIGDVQL (peptide)
peptide: SLNIGDVQL
B26: SMDDGMINV (peptide)
peptide: SMDDGMINV
B27: KLMNDIADI (peptide)
peptide: KLMNDIADI
B28: LLILENILL (peptide)
peptide: LLILENILL
B29: KLILLDTPLFL (peptide)
peptide: KLILLDTPLFL
B30: AIDAALTSV (peptide)
peptide: AIDAALTSV
B31: RLYEITIEV (peptide)
peptide: RLYEITIEV
B32: LVYEAIIMV (peptide)
peptide: LVYEAIIMV
B33: VLPAEFFEV (peptide)
peptide: VLPAEFFEV
B34: SLFDQPLSII (peptide)
peptide: SLFDQPLSII
B35: LLFDHLEPMEL (peptide)
peptide: LLFDHLEPMEL
B36: SIVASLITV (peptide)
peptide: SIVASLITV
B37: SQLDISEPYKV (peptide)
peptide: SQLDISEPYKV
B38: ILYNLYDLL (peptide)
peptide: ILYNLYDLL
B39: RLLILENILL (peptide)
peptide: RLLILENILL
B40: QILSEIVEA (peptide)
peptide: QILSEIVEA
B41: VVDGMPPGV (peptide)
peptide: VVDGMPPGV
B42: SLDNGGYYI (peptide)
peptide: SLDNGGYYI
B43: LQALEVLKI (peptide)
peptide: LQALEVLKI
B44: SLMLEVPAL (peptide)
peptide: SLMLEVPAL
B45: SILETVATL (peptide)
peptide: SILETVATL
B46: LIPEGPPQV (peptide)
peptide: LIPEGPPQV
B47: ALLRLLPGL (peptide)
peptide: ALLRLLPGL
B48: QLDEPAPQV (peptide)
peptide: QLDEPAPQV
B49: MLLEHGITLV (peptide)
peptide: MLLEHGITLV
B50: LLFDKLYLL (peptide)
peptide: LLFDKLYLL
B51: FVYGESVEL (peptide)
peptide: FVYGESVEL
B52: LLPTAPTTV (peptide)
peptide: LLPTAPTTV
B53: SMKDDLENV (peptide)
peptide: SMKDDLENV
B54: SLFDSAYGA (peptide)
peptide: SLFDSAYGA
B55: QIAELPATSV (peptide)
peptide: QIAELPATSV
B56: LLPEGGITAI (peptide)
peptide: LLPEGGITAI
B57: SLIRILQTI (peptide)
peptide: SLIRILQTI
B58: SLNIRDFTM (peptide)
peptide: SLNIRDFTM
B59: LLSEEEYHL (peptide)
peptide: LLSEEEYHL
B60: LLLEETEKQAV (peptide)
peptide: LLLEETEKQAV
B61: SLPEAPLDV (peptide)
peptide: SLPEAPLDV
B62: AIPPSFASIFL (peptide)
peptide: AIPPSFASIFL
B63: NLLDIDAPVTV (peptide)
peptide: NLLDIDAPVTV
B64: LLLEIGEVGKLFV (peptide)
peptide: LLLEIGEVGKLFV
B65: NLDKLWTLV (peptide)
peptide: NLDKLWTLV
B66: SLLAELHVL (peptide)
peptide: SLLAELHVL
B67: LLIPVVPGV (peptide)
peptide: LLIPVVPGV

What follows are binders tested against T1, HLA-A*02:01 (human) (assay: UV peptide-exchange ELISA).
T1 construct: MHC class I monomer of the UV-ligand exchange assay; also called peptide-receptive MHC molecules; MHC class I
Source text: Candidate peptides for T cell based therapies according to the present invention were further tested for their MHC binding capacity (affinity). The individual peptide-MHC complexes were produced by UV-ligand exchange, where a UV-sensitive peptide is cleaved upon UV-irradiation, and exchanged with the peptide of interest as analyzed. Only peptide candidates that can effectively bind and stabilize the peptide-receptive MHC molecules prevent dissociation of the MHC complexes. To determine the yield of the exchange reaction, an ELISA was performed based on the detection of the light chain (β2m) of stabilized MHC complexes. The assay was performed as generally described in Rodenko et al. (Rodenko et al., 2006).
96 well MAXISorp plates (NUNC) were coated over night with 2 ug/ml streptavidin in PBS at room temperature, washed 4× and blocked forl h at 37° C. in 2% BSA containing blocking buffer. Refolded HLA-A*02:01/MLA-001 monomers served as standards, covering the range of 15-500 ng/ml. Peptide-MHC monomers of the UV-exchange reaction were diluted 100 fold in blocking buffer. Samples were incubated for 1 h at 37° C., washed four times, incubated with 2 ug/ml HRP conjugated anti-β2m for 1 h at 37° C., washed again and detected with TMB solution that is stopped with […]. Absorption was measured at 450 nm. Candidate peptides that show a high exchange yield (preferably higher than 50%, most preferred higher than 75%) are generally preferred for a generation and production of antibodies or fragments thereof, and/or T cell receptors or fragments thereof, as they show sufficient avidity to the MHC molecules and prevent dissociation of the MHC complexes.
A peptide exchange yield of 10 to 20% was found for B1 in this work.
A peptide exchange yield of 50 to 75% was found for B2 in this work.
A peptide exchange yield of 20 to 50% was found for B3 in this work.
A peptide exchange yield of 50 to 75% was found for B4 in this work.
A peptide exchange yield of 50 to 75% was found for B5 in this work.
A peptide exchange yield of 50 to 75% was found for B6 in this work.
A peptide exchange yield of 50 to 75% was found for B7 in this work.
A peptide exchange yield of 50 to 75% was found for B8 in this work.
A peptide exchange yield of no less than 75% was found for B9 in this work.
A peptide exchange yield of 50 to 75% was found for B10 in this work.
A peptide exchange yield of 50 to 75% was found for B11 in this work.
A peptide exchange yield of 50 to 75% was found for B12 in this work.
A peptide exchange yield of 10 to 20% was found for B13 in this work.
A peptide exchange yield of 50 to 75% was found for B14 in this work.
A peptide exchange yield of 50 to 75% was found for B15 in this work.
A peptide exchange yield of 20 to 50% was found for B16 in this work.
A peptide exchange yield of 50 to 75% was found for B17 in this work.
A peptide exchange yield of 50 to 75% was found for B18 in this work.
A peptide exchange yield of 50 to 75% was found for B19 in this work.
A peptide exchange yield of 50 to 75% was found for B20 in this work.
A peptide exchange yield of 20 to 50% was found for B21 in this work.
A peptide exchange yield of 50 to 75% was found for B22 in this work.
A peptide exchange yield of 50 to 75% was found for B23 in this work.
A peptide exchange yield of 50 to 75% was found for B24 in this work.
A peptide exchange yield of 50 to 75% was found for B25 in this work.
A peptide exchange yield of 50 to 75% was found for B26 in this work.
A peptide exchange yield of 20 to 50% was found for B27 in this work.
A peptide exchange yield of 50 to 75% was found for B28 in this work.
A peptide exchange yield of 50 to 75% was found for B29 in this work.
A peptide exchange yield of 50 to 75% was found for B30 in this work.
A peptide exchange yield of no less than 75% was found for B31 in this work.
A peptide exchange yield of 50 to 75% was found for B32 in this work.
A peptide exchange yield of 50 to 75% was found for B33 in this work.
A peptide exchange yield of 50 to 75% was found for B34 in this work.
A peptide exchange yield of 50 to 75% was found for B35 in this work.
A peptide exchange yield of 50 to 75% was found for B36 in this work.
A peptide exchange yield of 50 to 75% was found for B37 in this work.
A peptide exchange yield of 50 to 75% was found for B38 in this work.
A peptide exchange yield of 50 to 75% was found for B39 in this work.
A peptide exchange yield of 20 to 50% was found for B40 in this work.
A peptide exchange yield of 50 to 75% was found for B41 in this work.
A peptide exchange yield of 50 to 75% was found for B42 in this work.
A peptide exchange yield of 10 to 20% was found for B43 in this work.
A peptide exchange yield of 50 to 75% was found for B44 in this work.
A peptide exchange yield of 50 to 75% was found for B45 in this work.
A peptide exchange yield of 50 to 75% was found for B46 in this work.
A peptide exchange yield of 50 to 75% was found for B47 in this work.
A peptide exchange yield of 20 to 50% was found for B48 in this work.
A peptide exchange yield of no less than 75% was found for B49 in this work.
A peptide exchange yield of 50 to 75% was found for B50 in this work.
A peptide exchange yield of 50 to 75% was found for B51 in this work.
A peptide exchange yield of 50 to 75% was found for B52 in this work.
A peptide exchange yield of 20 to 50% was found for B53 in this work.
A peptide exchange yield of 50 to 75% was found for B54 in this work.
A peptide exchange yield of 50 to 75% was found for B55 in this work.
A peptide exchange yield of 50 to 75% was found for B56 in this work.
A peptide exchange yield of 50 to 75% was found for B57 in this work.
A peptide exchange yield of 50 to 75% was found for B58 in this work.
A peptide exchange yield of 50 to 75% was found for B59 in this work.
A peptide exchange yield of 50 to 75% was found for B60 in this work.
A peptide exchange yield of 50 to 75% was found for B61 in this work.
A peptide exchange yield of 50 to 75% was found for B62 in this work.
A peptide exchange yield of 50 to 75% was found for B63 in this work.
A peptide exchange yield of 50 to 75% was found for B64 in this work.
A peptide exchange yield of 20 to 50% was found for B65 in this work.
A peptide exchange yield of 50 to 75% was found for B66 in this work.
A peptide exchange yield of 50 to 75% was found for B67 in this work.
